Laboratory results from patent US20090035321A1, “Intercellular adhesion molecules and their binding ligands” (Boehringer Ingelheim Pharmaceuticals, Inc., published 2009).

Columns and labels:
Assay in all cases: flow, COS cells
[1] = target: ICAM-1 S5/T (human) (UniProt P05362)
[2] = target: ICAM-1 E254DE/KEK (human, UniProt P05362)
[3] = target: ICAM-1 Q1T/KA (human, UniProt P05362)
[4] = target: ICAM-1 Q1/E (human, UniProt P05362)
[5] = target: ICAM-1 S3VS/AGL (human, UniProt P05362)
[6] = target: ICAM-1 S3/T (human, UniProt P05362)
[7] = target: ICAM-1 K8/E (human, UniProt P05362)
[8] = target: ICAM-1 R13/E (human, UniProt P05362)
[9] = target: ICAM-1 R13/K (human, UniProt P05362)
[10] = target: ICAM-1 T20CS/ACT (human, UniProt P05362)
[11] = target: ICAM-1 S24/A (human, UniProt P05362)
[12] = target: ICAM-1 E34/A (human, UniProt P05362)
[13] = target: ICAM-1 K39KE/ERQ (human, UniProt P05362)
[14] = target: ICAM-1 K40/A (human, UniProt P05362)
[15] = target: ICAM-1 N48/H (human, UniProt P05362)
[16] = target: ICAM-1 R49KV/EKL (human, UniProt P05362)
[17] = target: ICAM-1 K50V/EL (human, UniProt P05362)
[18] = target: ICAM-1 Y52/F (human, UniProt P05362)
[19] = target: ICAM-1 Y52/FA (human, UniProt P05362)
[20] = target: ICAM-1 Q58EDS/AKDI (human, UniProt P05362)
[21] = target: ICAM-1 Q58/H (human, UniProt P05362)
[22] = target: ICAM-1 D60/Q (human, UniProt P05362)
[23] = target: ICAM-1 S61/I (human, UniProt P05362)
[24] = target: ICAM-1 Q62PM/API (human, UniProt P05362)
[25] = target: ICAM-1 M64/I (human, UniProt P05362)
[26] = target: ICAM-1 N68/K (human, UniProt P05362)
[27] = target: ICAM-1 D71GQS/NGEL (human, UniProt P05362)
[28] = target: ICAM-1 D71/E (human, UniProt P05362)
[29] = target: ICAM-1 Q73/T (human, UniProt P05362)
[30] = target: ICAM-1 S74/A (human, UniProt P05362)
[31] = target: ICAM-1 T75/A (human, UniProt P05362)
[32] = target: ICAM-1 K77T/ES (human, UniProt P05362)
[33] = target: ICAM-1 Y83/S (human, UniProt P05362)
[34] = target: ICAM-1 R88V/EA (human, UniProt P05362)
[35] = target: ICAM-1 E90/Q (human, UniProt P05362)
[36] = target: ICAM-1 G101K/AN (human, UniProt P05362)
[37] = target: ICAM-1 N103/K (human, UniProt P05362)
[38] = target: ICAM-1 E111GGA/KAGS (human, UniProt P05362)
[39] = target: ICAM-1 E127/R (human, UniProt P05362)
[40] = target: ICAM-1 K128/R (human, UniProt P05362)
[41] = target: ICAM-1 V136GE/GVK (human, UniProt P05362)
[42] = target: ICAM-1 R149RD/EEG (human, UniProt P05362)
[43] = target: ICAM-1 N156/E (human, UniProt P05362)
[44] = target: ICAM-1 R166PQ/EPA (human, UniProt P05362)
[45] = target: ICAM-1 N175TSA/QTLG (human, UniProt P05362)
[46] = target: ICAM-1 N175/A (human, UniProt P05362)
[47] = target: ICAM-1 S177/G (human, UniProt P05362)
[48] = target: ICAM-1 A178/G (human, UniProt P05362)
[49] = target: ICAM-1 A189T/SI (human, UniProt P05362)
[50] = target: ICAM-1 D203TQ/TAD (human, UniProt P05362)
[51] = target: ICAM-1 D213GL/HGV (human, UniProt P05362)
[52] = target: ICAM-1 D229QR/HLE (human, UniProt P05362)

Substance: monoclonal antibody CL203
- SLFI % WT [1]: 251 % WT
- SLFI % WT [2]: 180 % WT
- SLFI % WT [3]: 230 % WT
- SLFI % WT [4]: 135 % WT
- SLFI % WT [5]: 121 % WT
- SLFI % WT [6]: 224 % WT
- SLFI % WT [7]: 111 % WT
- SLFI % WT [8]: 202 % WT
- SLFI % WT [9]: 189 % WT
- SLFI % WT [10]: 148 % WT
- SLFI % WT [11]: 158 % WT
- SLFI % WT [12]: 132 % WT
- SLFI % WT [13]: 84 % WT
- SLFI % WT [14]: 146 % WT
- SLFI % WT [15]: 164 % WT
- SLFI % WT [16]: 233 % WT
- SLFI % WT [17]: 103 % WT
- SLFI % WT [18]: 152 % WT
- SLFI % WT [19]: 100 % WT
- SLFI % WT [20]: 98 % WT
- SLFI % WT [21]: 135 % WT
- SLFI % WT [22]: 80 % WT
- SLFI % WT [23]: 140 % WT
- SLFI % WT [24]: 200 % WT
- SLFI % WT [25]: 183 % WT
- SLFI % WT [26]: 153 % WT
- SLFI % WT [27]: 161 % WT
- SLFI % WT [28]: 124 % WT
- SLFI % WT [29]: 218 % WT
- SLFI % WT [30]: 129 % WT
- SLFI % WT [31]: 153 % WT
- SLFI % WT [32]: 151 % WT
- SLFI % WT [33]: 125 % WT
- SLFI % WT [34]: 113 % WT
- SLFI % WT [35]: 152 % WT
- SLFI % WT [36]: 142 % WT
- SLFI % WT [37]: 91 % WT
- SLFI % WT [38]: 122 % WT
- SLFI % WT [39]: 191 % WT
- SLFI % WT [40]: 190 % WT
- SLFI % WT [41]: 171 % WT
- SLFI % WT [42]: 159 % WT
- SLFI % WT [43]: 182 % WT
- SLFI % WT [44]: 94 % WT
- SLFI % WT [45]: 75 % WT
- SLFI % WT [46]: 80 % WT
- SLFI % WT [47]: 87 % WT
- SLFI % WT [48]: 304 % WT
- SLFI % WT [49]: 138 % WT
- SLFI % WT [50]: 125 % WT
- SLFI % WT [51]: 128 % WT
- SLFI % WT [52]: 210 % WT
